This passage reports Ki and Kd results from article PMC7711741.

pKd, pKi: −log10 of the molar value. Like-named read-outs stand apart in the source and are kept apart here.

In assay [1] the target is mupain-1 (synthetic construct).
The target in assay [2] is mupain-1 (synthetic construct). The settings on record: cited from earlier work.
The target of assay [3] is mupain-1 (synthetic construct). The settings on record: cited from earlier work. The source holds these as a separate data set.
Assay [4] has as its target urokinase-type plasminogen activator (muPA) (Mus musculus) (UniProt P06869). The settings on record: cited from earlier work.
Assay [5] deals with mupain-1 (synthetic construct). The assay can be described thus: SPR.
In assay [6] the target is mupain-1 (synthetic construct). This is another data set of the same source.
The target of assay [7] is mupain-1 (synthetic construct). The source holds these as a separate data set.
Assay [8] concerns the target mupain-1 (synthetic construct). As to conditions: cited from earlier work. This is another data set of the same source.
In assay [9] the target is mupain-1 (synthetic construct). As to conditions: cited from earlier work. This is another data set of the same source.
Assay [10] deals with mupain-1 (synthetic construct). The settings on record: cited from earlier work. This is another data set of the same source.
In assay [11] the target is mupain-1 (synthetic construct). The settings on record: cited from earlier work. This is another data set of the same source.

plasma kallikrein, P03952, sequence (P03952 391-638): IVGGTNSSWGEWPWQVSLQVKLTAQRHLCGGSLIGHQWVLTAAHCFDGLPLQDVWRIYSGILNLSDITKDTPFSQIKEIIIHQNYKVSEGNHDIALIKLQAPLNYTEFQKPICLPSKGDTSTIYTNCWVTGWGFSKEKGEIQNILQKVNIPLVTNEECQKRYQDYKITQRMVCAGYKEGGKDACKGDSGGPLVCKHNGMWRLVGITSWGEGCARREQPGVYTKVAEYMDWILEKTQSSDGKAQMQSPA
urokinase-type plasminogen activator (muPA) (Mus musculus), sequence (P06869 180-433): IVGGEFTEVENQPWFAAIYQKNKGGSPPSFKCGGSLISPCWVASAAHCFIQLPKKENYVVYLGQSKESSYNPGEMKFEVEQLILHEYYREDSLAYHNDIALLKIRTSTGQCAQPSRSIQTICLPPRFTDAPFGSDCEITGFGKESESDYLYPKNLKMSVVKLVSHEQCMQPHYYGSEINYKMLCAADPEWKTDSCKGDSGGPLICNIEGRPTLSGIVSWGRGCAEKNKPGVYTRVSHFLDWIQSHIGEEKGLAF
plasmin (from UniProt P00747), sequence (P00747 581-810): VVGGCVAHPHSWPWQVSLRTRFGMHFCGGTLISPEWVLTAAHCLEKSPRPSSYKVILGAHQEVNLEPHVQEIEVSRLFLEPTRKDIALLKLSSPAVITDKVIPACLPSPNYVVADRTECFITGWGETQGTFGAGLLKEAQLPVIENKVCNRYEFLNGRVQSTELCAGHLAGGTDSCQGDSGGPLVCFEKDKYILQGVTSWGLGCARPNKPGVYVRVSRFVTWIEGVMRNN
beta-trypsin, sequence (P00760 24-246): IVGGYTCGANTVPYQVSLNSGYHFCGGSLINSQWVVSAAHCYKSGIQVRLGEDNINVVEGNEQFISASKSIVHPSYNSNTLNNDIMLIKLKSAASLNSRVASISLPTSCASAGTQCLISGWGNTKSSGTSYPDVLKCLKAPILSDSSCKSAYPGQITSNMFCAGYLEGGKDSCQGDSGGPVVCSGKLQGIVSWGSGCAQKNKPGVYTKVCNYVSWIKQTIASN
plasma kallikrein, P26262, sequence (P26262 391-638): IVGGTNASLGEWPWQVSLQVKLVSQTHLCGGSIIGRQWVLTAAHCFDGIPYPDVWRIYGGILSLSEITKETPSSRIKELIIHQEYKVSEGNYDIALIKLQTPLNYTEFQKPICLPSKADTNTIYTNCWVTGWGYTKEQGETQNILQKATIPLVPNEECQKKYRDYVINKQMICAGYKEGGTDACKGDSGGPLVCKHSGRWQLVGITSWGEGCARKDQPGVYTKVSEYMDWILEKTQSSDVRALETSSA
urokinase-type plasminogen activator, sequence (P06869 157-178): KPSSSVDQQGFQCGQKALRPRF
plasmin (from UniProt P20918), sequence (P20918 582-812): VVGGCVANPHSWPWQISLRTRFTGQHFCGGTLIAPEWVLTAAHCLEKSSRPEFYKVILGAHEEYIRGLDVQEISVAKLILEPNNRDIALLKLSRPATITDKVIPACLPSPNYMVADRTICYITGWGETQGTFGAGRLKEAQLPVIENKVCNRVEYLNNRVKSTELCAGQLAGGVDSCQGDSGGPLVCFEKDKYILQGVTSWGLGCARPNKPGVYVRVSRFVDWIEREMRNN
factor XIa catalytic domain, sequence (P03951 388-625): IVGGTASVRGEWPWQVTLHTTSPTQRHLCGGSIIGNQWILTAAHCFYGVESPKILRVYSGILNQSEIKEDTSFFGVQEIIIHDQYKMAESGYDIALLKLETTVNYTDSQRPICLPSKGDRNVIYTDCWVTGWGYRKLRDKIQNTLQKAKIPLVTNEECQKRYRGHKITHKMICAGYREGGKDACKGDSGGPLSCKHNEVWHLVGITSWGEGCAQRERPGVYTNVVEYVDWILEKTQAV

KLK1, P06870 gave a pKi in assay [1] of under 3.00.

For the substance beta-trypsin (from UniProt P00760), in assay [2], the pKi is 4.68.

Turning to “factor XIa catalytic domain (from UniProt P03951)”, in assay [3], the pKi is under 3.00.

On to mupain-1, for which the pKi in [4] is 6.26.

With plasma kallikrein, P03952, in assay [5], the pKd is under 3.00. This substance also had a negative-log Ki (pKi) in [6] of under 3.00.

plasma kallikrein, P26262: the pKi in [7] was under 3.00.

On to plasmin (from UniProt P00747), for which the pKi in assay [8] was under 3.00.

With plasmin (from UniProt P20918), the pKi in assay [9] is under 3.00.

As for “urokinase-type plasminogen activator (from UniProt P00749)”, the negative logarithm of the Ki (pKi) in assay [10] was under 3.00.

In the case of “urokinase-type plasminogen activator (from UniProt P06869)”, the pKi in [11] was 6.26.
